Assay results reported in patent publication US20240352121A1 (published 2024).

B1: hLAIR-1 mAb-Parent (antibody, V domains shown)
VH: EVQLVESGGGLVQPKGSLKLSCAASGFTFNTNAMYWVRQAPGKGLEWVARIRSKSSNYATYYADSVKDRFTISRDDSQSMLYLQMNNLKTEDTARYYCVRGGSGFFAYWGQGTLVTVSA
VL: DIQMAQSSSSFSVSLGDRVTITCKASEDIYIRLAWYQQKPGNAPRLLISTATSLETGVPSRFSGSGSGKDYTLSITSLQTEDVATYYCQQYWSTPYTFGGGTRLEIK
B2: h11B3 LAIR-1 mAb, Anti-LAIR-1 Variant 6 (h11B3 VL-2 / h11B3 VH-3) (antibody, V domains shown)
VH: EVQLVESGGGLVQPGGSLKLSCAASGFTFNTNAMYWVRQAPGKGLEWVGRIRSKSSNYATYYAASVKGRFTISRDDSKNTLYLQMNSLKTEDTAVYYCVRGGSGFFAYWGQGTLVTVSS
VL: DIQMTQSPSSLSASLGDRVTITCKASEDIYIRLAWYQQKPGKAPRLLISTATSLETGVPSRFSGSGSGTDYTFTISSLQPEDIATYYCQQYWSTPYTFGGGTRLEIK
B3: 11B3 hG1 (antibody, V domains shown)
VH: EVQLVESGGGLVQPKGSLKLSCAASGFTFNTNAMYWVRQAPGKGLEWVARIRSKSSNYATYYADSVKDRFTISRDDSQSMLYLQMNNLKTEDTARYYCVRGGSGFFAYWGQGTLVTVSA
VL: DIQMAQSSSSFSVSLGDRVTITCKASEDIYIRLAWYQQKPGNAPRLLISTATSLETGVPSRFSGSGSGKDYTLSITSLQTEDVATYYCQQYWSTPYTFGGGTRLEIKR

Legend:
[1] = target: human LAIR-1 fused to the zeta chain of CD3, on UT-140 reporter cells (UniProt P20963 31-164); experiment: cell binding (flow cytometry)
[2] = target: T1, LAIR-1 (human; form used for the KD not stated) (UniProt Q6GTX8 22-165); experiment: kinetic binding; replicate 1
T1 chain: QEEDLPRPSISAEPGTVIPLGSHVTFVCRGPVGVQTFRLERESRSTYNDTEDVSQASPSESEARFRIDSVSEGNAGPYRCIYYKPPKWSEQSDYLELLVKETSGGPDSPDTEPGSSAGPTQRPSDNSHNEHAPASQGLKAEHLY

[3] = target: T1, LAIR-1 (human; form used for the KD not …); experiment: kinetic binding; replicate 3
[4] = target: T1, LAIR-1 (human; form used for the KD not …); experiment: kinetic binding; replicate 2

| Binder | EC50 [1] | Kd [2] | Kd [3] | Kd [4] |
| --- | --- | --- | --- | --- |
| B1 | 0.15 nM |  |  |  |
| B2 |  | 2.38 nM | 2.34 nM |  |
| B3 |  | 1.25 nM | 1.95 nM | 1.16 nM |
